Consider one substance from US20170190781A1.

In the experiment the target is death receptor 3 (DR3) on human PBMCs / T cells (human) (UniProt Q93038). Nature of the experiment: cell-based or functional assay.
Chain of death receptor 3 (DR3) on human PBMCs / T cells (human) (Q93038 25-417 limits assumed): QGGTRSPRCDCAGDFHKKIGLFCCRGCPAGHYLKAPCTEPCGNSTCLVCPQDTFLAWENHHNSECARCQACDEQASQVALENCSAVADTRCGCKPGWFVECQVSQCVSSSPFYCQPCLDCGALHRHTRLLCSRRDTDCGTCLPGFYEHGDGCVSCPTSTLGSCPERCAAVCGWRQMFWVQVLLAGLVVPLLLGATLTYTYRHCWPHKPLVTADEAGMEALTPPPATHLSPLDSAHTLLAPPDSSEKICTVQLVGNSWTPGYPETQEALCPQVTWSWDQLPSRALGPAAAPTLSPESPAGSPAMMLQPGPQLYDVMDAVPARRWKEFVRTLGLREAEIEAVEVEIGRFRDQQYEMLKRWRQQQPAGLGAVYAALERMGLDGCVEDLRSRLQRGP

“recombinant soluble human Flag-TL1A(EC) (ligand)” registered an IL-13 production by T cells with anti-CD3/anti-CD28, 1 ug/mL TL1A-flag (FIG. 4) of 1300 pg/mL; an IL-13 production by T cells with anti-CD3/anti-CD28, 1 ug/mL TL1A-flag (FIG. 8) of 1850 pg/mL; a p65 phosphorylation-positive cells (%) in PBMCs, 40 nM TL1A-flag (FIG. 2B) of 55%; a p65 phosphorylation-positive cells (%) in PBMCs, 40 nM TL1A-flag alone (FIG. 2A) of 45%. In addition, the p65 phosphorylation-positive cells (%) in PBMCs, TL1A alone (FIG. 3) worked out at 55%; the p65 phosphorylation-positive cells (%) in PBMCs, TL1A alone (FIG. 5) came out at 69.5%; the p65 phosphorylation-positive cells (%) in PBMCs, TL1A alone (FIG. 6) is 45%; the p65 phosphorylation-positive cells (%) in PBMCs, TL1A alone (FIG. 7) was found to be 55%.
